According to PMC11162772, “FUS reads histone H3K36me3 to regulate alternative polyadenylation”:

Key:
[1] = biological target: FUS P421L (so in the source) (UniProt P35637 1-526, P431L); assay: MST; slightly increased affinity vs WT; MST: PBS with 0.05% BSA and 0.05% Tween-20, 5 nM Cy5-RNA, temperature not stated; nucleosome pull-down buffer not given; details: protein: recombinant; tags: GST (pGEX-6p-2); label: 3' Cy5
FUS-ΔZNF = FUS-ΔZNF (UniProt P35637 1-421+454-526, internal_change); assay: MST; no significant decrease vs WT; MST: PBS with 0.05% BSA and 0.05% Tween-20, 5 nM Cy5-RNA, temperature not stated; nucleosome pull-down buffer not given; details: protein: recombinant; tags: GST (pGEX-6p-2); label: 3' Cy5
Sequence of FUS-ΔZNF (P35637 other isoform, or with tags, fused parts or gaps | mutant): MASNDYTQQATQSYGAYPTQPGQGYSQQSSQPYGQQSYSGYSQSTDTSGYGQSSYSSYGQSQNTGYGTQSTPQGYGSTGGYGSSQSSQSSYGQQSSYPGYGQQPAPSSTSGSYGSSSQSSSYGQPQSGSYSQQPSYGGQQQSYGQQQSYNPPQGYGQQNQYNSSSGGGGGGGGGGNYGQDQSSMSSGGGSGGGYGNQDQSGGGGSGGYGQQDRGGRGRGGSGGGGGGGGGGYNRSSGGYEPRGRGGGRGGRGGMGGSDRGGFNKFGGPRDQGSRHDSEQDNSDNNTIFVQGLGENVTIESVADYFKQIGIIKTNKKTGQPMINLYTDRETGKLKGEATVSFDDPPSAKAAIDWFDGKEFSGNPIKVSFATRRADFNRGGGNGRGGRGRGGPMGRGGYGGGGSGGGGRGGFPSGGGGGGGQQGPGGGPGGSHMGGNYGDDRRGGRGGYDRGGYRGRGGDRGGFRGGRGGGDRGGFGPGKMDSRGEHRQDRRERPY

Sequence of FUS P421L (so in the source) (P35637 whole entry P431L): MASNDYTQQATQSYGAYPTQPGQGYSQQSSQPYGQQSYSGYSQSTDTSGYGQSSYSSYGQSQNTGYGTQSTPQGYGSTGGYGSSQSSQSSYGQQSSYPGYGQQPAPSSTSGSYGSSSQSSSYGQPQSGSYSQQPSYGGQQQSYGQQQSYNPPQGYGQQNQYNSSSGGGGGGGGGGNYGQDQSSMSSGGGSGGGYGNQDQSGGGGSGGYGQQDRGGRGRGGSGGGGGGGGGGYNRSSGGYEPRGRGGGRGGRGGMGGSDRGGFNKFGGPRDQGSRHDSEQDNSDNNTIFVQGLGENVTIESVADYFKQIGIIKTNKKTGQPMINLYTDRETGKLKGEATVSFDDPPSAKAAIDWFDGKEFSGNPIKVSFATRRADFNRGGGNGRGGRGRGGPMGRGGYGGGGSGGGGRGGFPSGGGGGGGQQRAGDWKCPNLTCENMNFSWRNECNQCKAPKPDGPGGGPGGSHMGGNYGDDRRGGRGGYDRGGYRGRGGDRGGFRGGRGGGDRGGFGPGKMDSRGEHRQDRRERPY

Binder | binding result [1] | binding result (FUS-ΔZNF)
GGUGGGUGGGUGGGUGGGUG (ssRNA) [5XGGUG-3'Cy5] | binds | binds
UUAGGGUUAGGGUUAGGGUUAGGG (ssRNA) [4XUUAGGG-3'Cy5] | – | binds
